What all share (conditions): both partners purified
Assay [1] concerns the target T1, Human full-length PHAX, phosphorylated in vitro by CK2 (human, UniProt Q9H814 1-394, phosphorylated by CK2 in vitro: between 3 and 5 phosphorylated sites, up to four within ST2 (residues 64–76); the positions are not given).
T1 construct: PHAX (Phosphorylated Adaptor for RNA Export), human, 394 amino acid residues; also called P-PHAX; phosphorylated PHAX; source: E. coli BL21Star (DE3), pETM11, purified (Ni2+-chelating Sepharose, heparin, Superdex 200); then treated with CK2 and ATP
Kind of assay: cryo-EM structure; snRNA export complex of CBC, CK2-phosphorylated PHAX, CRM1, Ran(Q69L)GTP and 14-nt capped RNA, purified on Superdex 200 Increase; Titan Krios 300 kV.

Assay [2] deals with T2, CBP80ΔNLS (subunit of the human CBC) (human, UniProt Q09161 20-790).
T2 construct: CBP80 (NCBP1), human, lacking the N-terminal 19 residues; Stood in the assay as part of CBC; made a molecule of its own for the contacts seen in the structure; also called NCBP1; source: High Five insect cells; purified together with CBP20 as CBC
T2 sequence (looked up): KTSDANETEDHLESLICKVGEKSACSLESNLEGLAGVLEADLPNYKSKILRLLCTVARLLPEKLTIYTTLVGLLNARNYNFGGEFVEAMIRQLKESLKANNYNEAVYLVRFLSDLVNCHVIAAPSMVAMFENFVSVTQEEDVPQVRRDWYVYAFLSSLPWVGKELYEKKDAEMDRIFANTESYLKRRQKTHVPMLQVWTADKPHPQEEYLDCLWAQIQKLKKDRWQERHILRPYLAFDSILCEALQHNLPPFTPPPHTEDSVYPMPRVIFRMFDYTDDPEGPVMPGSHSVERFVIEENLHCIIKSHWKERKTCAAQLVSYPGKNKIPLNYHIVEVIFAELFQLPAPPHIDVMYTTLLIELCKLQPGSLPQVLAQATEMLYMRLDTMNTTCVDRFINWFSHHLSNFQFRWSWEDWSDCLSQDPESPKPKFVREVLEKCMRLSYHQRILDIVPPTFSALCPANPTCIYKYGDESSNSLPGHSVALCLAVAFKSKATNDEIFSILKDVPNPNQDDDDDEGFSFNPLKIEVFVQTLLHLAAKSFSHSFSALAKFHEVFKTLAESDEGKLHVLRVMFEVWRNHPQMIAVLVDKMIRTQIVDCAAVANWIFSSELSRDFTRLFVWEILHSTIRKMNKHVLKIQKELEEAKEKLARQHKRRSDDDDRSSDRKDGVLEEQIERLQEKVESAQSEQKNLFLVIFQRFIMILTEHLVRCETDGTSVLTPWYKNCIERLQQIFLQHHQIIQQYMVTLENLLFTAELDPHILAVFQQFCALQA
The description is as above.

The target in assay [3] is T3, Human nuclear cap-binding complex (CBC): CBP80ΔNLS with CBP20 (human, UniProt Q09161 20-790; P52298 1-156).
T3 construct: CBP80 (NCBP1), human, CBP80ΔNLS lacking the N-terminal 19 residues; CBP20 (NCBP2), human; also called CBP80–CBP20; source: CBP80ΔNLS in High Five insect cells, CBP20 in E. coli BL21Star (DE3); pellets lysed together, purified (Ni2+-chelating Sepharose, TEV, heparin, Superdex 200)
T3 sequence 1: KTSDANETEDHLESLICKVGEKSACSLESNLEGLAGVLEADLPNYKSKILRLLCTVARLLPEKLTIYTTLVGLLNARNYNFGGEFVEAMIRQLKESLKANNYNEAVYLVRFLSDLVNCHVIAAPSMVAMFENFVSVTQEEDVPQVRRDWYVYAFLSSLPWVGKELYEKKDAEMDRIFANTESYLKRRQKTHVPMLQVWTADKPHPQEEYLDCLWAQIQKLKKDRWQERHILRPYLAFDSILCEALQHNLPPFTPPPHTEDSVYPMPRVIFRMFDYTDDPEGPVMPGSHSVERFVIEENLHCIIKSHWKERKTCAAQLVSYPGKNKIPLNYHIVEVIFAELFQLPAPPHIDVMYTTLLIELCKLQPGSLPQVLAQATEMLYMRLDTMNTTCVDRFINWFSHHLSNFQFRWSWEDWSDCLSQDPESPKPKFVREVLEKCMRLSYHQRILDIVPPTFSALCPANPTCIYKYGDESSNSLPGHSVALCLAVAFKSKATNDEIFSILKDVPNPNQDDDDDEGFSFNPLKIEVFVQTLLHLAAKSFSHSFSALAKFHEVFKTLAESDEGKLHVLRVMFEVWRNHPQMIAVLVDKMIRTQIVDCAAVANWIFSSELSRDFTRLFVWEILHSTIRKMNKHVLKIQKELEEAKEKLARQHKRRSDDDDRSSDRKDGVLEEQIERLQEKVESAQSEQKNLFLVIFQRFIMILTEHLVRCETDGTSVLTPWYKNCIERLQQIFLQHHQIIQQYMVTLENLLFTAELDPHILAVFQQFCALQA
T3 sequence 2: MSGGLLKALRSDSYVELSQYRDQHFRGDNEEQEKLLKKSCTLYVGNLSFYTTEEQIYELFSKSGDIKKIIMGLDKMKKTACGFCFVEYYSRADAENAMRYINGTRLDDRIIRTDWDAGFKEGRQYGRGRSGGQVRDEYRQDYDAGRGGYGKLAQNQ
Description: SEC; Superdex 200 Increase 3.2/300; 180 pmol CBC and 360 pmol PHAX construct, CRM1 and RanGTP mixed with 100 μM capped 14-nt RNA (or U1 snRNA), 1 mM Mg2+, 1 mM KCl, 100 μM GTP, 30 min on ice; fractions on SDS-PAGE. A general note: In gel filtration, larger molecules generally elute earlier.

In assay [4] the target is Human Ran Q69L bound to GTP (human, UniProt P62826 1-216, Q69L). The assay is described as above.
Assay [5] addresses T4, Human CRM1 (human, UniProt O14980 1-1071).
T4 construct: CRM1 (XPO1), human; also called XPO1; exportin CRM1; source: E. coli Tg1, pQE60, purified (Ni2+-chelating Sepharose, heparin, Superdex 200)
The description is as above.

The target in assay [6] is T3, Human nuclear cap-binding complex …. Description: ITC; 25 °C, PEAQ-ITC; 0.2–0.25 mM PHAX 103–196 or mutant injected into 20 µM CBC in the presence or absence of 0.1 mM m7GTP or m7GpppG; 20 mM Tris pH 8.0, 100 mM NaCl, 2% glycerol; one-site model.

T1 sequence (Q9H814 whole entry, the tested form may be a part): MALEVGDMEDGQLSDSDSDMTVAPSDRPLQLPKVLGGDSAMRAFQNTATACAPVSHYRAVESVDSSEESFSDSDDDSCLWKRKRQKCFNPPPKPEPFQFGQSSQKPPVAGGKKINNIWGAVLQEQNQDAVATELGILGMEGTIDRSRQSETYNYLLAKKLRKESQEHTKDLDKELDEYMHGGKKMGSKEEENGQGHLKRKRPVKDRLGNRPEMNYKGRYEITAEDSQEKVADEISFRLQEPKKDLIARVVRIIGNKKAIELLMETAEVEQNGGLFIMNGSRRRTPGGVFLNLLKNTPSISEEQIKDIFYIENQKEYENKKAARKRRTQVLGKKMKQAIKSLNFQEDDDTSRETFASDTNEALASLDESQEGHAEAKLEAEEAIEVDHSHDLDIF
T4 sequence (O14980 whole entry): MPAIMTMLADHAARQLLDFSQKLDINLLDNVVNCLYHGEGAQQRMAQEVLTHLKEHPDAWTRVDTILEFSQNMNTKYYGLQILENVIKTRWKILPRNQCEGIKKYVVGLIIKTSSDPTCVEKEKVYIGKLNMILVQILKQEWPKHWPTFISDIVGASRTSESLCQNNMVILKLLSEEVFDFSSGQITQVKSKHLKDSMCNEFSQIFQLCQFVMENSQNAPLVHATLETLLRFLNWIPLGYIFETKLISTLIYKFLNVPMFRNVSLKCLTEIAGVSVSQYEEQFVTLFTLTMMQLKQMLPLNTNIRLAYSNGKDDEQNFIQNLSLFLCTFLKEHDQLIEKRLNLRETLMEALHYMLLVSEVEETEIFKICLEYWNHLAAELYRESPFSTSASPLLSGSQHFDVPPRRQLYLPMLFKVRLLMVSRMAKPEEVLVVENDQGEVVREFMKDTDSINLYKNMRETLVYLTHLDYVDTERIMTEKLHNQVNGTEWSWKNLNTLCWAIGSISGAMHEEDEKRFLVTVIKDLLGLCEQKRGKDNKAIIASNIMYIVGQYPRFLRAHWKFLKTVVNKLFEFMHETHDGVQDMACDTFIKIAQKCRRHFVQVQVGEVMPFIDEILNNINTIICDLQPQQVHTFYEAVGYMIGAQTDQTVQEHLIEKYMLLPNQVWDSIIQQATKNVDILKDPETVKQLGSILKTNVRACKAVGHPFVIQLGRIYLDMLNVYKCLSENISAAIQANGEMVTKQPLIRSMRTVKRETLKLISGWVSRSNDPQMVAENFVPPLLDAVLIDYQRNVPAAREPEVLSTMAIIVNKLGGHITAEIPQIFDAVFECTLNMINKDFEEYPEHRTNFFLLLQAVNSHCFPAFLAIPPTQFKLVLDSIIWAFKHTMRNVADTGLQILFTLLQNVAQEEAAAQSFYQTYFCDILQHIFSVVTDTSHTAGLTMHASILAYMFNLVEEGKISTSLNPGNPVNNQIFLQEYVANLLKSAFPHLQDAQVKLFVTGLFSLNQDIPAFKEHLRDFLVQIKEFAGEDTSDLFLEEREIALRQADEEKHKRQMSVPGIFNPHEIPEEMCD

B1: CBP20 (subunit of the human CBC) (natural protein)
chain: MSGGLLKALRSDSYVELSQYRDQHFRGDNEEQEKLLKKSCTLYVGNLSFYTTEEQIYELFSKSGDIKKIIMGLDKMKKTACGFCFVEYYSRADAENAMRYINGTRLDDRIIRTDWDAGFKEGRQYGRGRSGGQVRDEYRQDYDAGRGGYGKLAQNQ
notes: CBP20 (NCBP2), human; Stood in the assay as part of CBC; made a molecule of its own for the contacts seen in the structure; also called NCBP2; source: E. coli BL21Star (DE3), pETM30; purified together with CBP80ΔNLS as CBC
As for B1, the binding result in assay [1] and in assay [2] was “binds” throughout.

B2: MBP-PHAX103–196 (wild type) (domain or fragment, human, UniProt Q9H814 103-196, looked up)
chain: SQKPPVAGGKKINNIWGAVLQEQNQDAVATELGILGMEGTIDRSRQSETYNYLLAKKLRKESQEHTKDLDKELDEYMHGGKKMGSKEEENGQGH
notes: source: E. coli BL21Star (DE3), pETM41, purified (Ni2+-chelating Sepharose, Superdex 200); not shown: MBP, N-terminal, kept
As to B2, the binding result in assay [3], in assay [4] and in assay [5] was “binds” throughout.

B3: MBP-PHAX103–196 Y154A (domain or fragment, human, UniProt Q9H814 103-196, looked up)
chain: SQKPPVAGGKKINNIWGAVLQEQNQDAVATELGILGMEGTIDRSRQSETYNALLAKKLRKESQEHTKDLDKELDEYMHGGKKMGSKEEENGQGH
notes: as for B2
On to B3, for which the binding result in assay [3] is on record as “binds”.

B4: MBP-PHAX103–196 R147E, Y152E, Y154E (domain or fragment, human, UniProt Q9H814 103-196, looked up)
chain: SQKPPVAGGKKINNIWGAVLQEQNQDAVATELGILGMEGTIDRSEQSETENELLAKKLRKESQEHTKDLDKELDEYMHGGKKMGSKEEENGQGH
notes: as for B2
Take B4: the binding result in assay [6] was “binds”.
